In the supplement of paper PMC9170038:

System: MS2 coat protein
Assay: apparent KD of MS2 coat protein; designed switch direction (-1 OFF switch, 1 ON switch): -1; higher = weaker reporter binding
How it was run: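 Stalled E. coli RNA polymerase transcribed designed RNA switches on Illumina chips, which were then titrated with SNAP-549-labelled MS2 coat protein, doubling from 0.7 or 1.5 nM to 3 µM. Steps lasted from 0.8–1.5 h at the lowest concentration to 10–20 min at the highest. The apparent KD is each design's median over clusters of curve-fitted normalised fluorescence.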

[1] = Eterna round: R95, input ligand: microRNA oligo, concentration not stated
[2] = Eterna round: R95, input ligand: FMN 200 uM
[3] = Eterna round: R95, input ligand: none
[4] = input ligand: microRNA oligo, concentration not stated

| Sequence | apparent KD of MS2 coat protein [1] [nM] | apparent KD of MS2 coat protein (input ligand: FMN 200 uM) [nM] | apparent KD of MS2 coat protein (input ligand: none) [nM] | also measured |
| --- | --- | --- | --- | --- |
| GGUGGACAUGAGGAUCACCCAUGUGAGGAUAUCGGCCGGCUAGUGGUGGCUGGCUUCUCGAGAAGGCGCAUAGU [Exclusion 1 V76] (puzzle: Exclusion 1) | 46.8 | – | – | – |
| GGUGGACAUGAGGAUCACCCAUGUGAGGAUAUCGGCCGGUUCGUGGUGGCUGGCGUCUCGAGAAGGCACAUAGU [Exclusion 1 V69] (puzzle: Exclusion 1) | 114 | – | – | – |
| GGUGGACAUGAGGAUCACCCAUGUGAGGAUAUCGGCUAUCUUAUCGCUGUCGGUUGCUCGAGAAGGCACAUUGU [Exclusion 1 V96] (puzzle: Exclusion 1) | 71.2 | – | – | – |
| GGUGGACAUGAGGAUCACCCAUGUGAGGAUAUCGGCUGGCUAGCGGCUGACGGCUGCUCGAGAAGGCGCAUUGU [Exclusion 1 V85] (puzzle: Exclusion 1) | 50.5 | – | – | – |
| GGUUGGCGAGGAUAUACAUGAGGAUCACCCAUGUGAGAAUAAAAAGUGAGGAAGAAAAGUAGAAGGCGCUGACG [Mat - Exclusion 3 - Mod of Salish D5] (puzzle: Exclusion 3) | 31.6 | – | – | apparent KD of MS2 coat protein [2]: 76.5 nM; apparent KD of MS2 coat protein [3]: 36.3 nM |
| GGUUGGCGAGGAUAUACAUGAGGAUCACCCAUGUGAGAGAAAAAAGUGAGAACGAAAAGUAGAAGGCGCUGACG [salish99-ex3-25] (Eterna round: R96, puzzle: Exclusion 3) | – | 315 | 98.8 | apparent KD of MS2 coat protein [4]: 67.5 nM |
| GGUUGGCGAGGAUAUACAUGAGGAUCACCCAUGUGAGAGAAAAAAGUGAGAACGAAAAGUAGAAGGCGCUGACG [salish99_ex3_r3_057] (puzzle: Exclusion 3) | 122 | – | – | apparent KD of MS2 coat protein [2]: 272 nM; apparent KD of MS2 coat protein [3]: 76.9 nM |
| GGUUGGCGAGGAUAUACAUGAGGAUCACCCAUGUGAGAGAAAAUAGUGAGGAAGAAAAGUAGAAGGCGCUGACG [salish99_ex3_r3_014] (puzzle: Exclusion 3) | 47.7 | – | – | apparent KD of MS2 coat protein [2]: 98.1 nM; apparent KD of MS2 coat protein [3]: 37.5 nM |
| GGUUGGCGAGGAUAUACAUGAGGAUCACCCAUGUGGUCCUGUGGAAAAAAAAACCUUUGUAGAAGGCGCGGGUC [salish99_ex3_r4_032] (Eterna round: R97, puzzle: Exclusion 3) | – | 415 | 534 | – |
| GUAAAGUGAGGAUAUGGUAAAUUAAUUAUUUAUUAAUUAAUCCAGAAGGCACAUGAGGAUCACCCAUGUAAAUG [Mat - Exclusion 4 - D94] (puzzle: Exclusion 4) | 26.5 | – | – | – |
| GUAACAUGCUGGUGAUCAUACAUGAGGAUCACCCAUGUAACAAGCUUUUUGUUCGUCUUAUAAGAUUACUAGUAUGU [Stov1/10-B2] (Eterna round: R97, puzzle: Sensor, turn-off variant 1) | – | 33 | 39.7 | – |
| GUAACAUGCUGGUGAUCAUACAUGAGGAUCACCCAUGUAACAAGCUUUUUGUUCGUCUUAUAAUUUAAGAUCACCAG [Stov1/7-B3] (Eterna round: R97, puzzle: Sensor, turn-off variant 1) | – | 19.8 | 21.8 | – |
| GUAAUUAAUGUAGGAUAUGCAAGGCGAACCUAAGCAGAAGGACAUGAGGAUCACCCAUGUAUUGCGGUCUGCGUUCAGAUCGCU [salish99_ExNG1_r4_009] (Eterna round: R96, puzzle: Exclusion NG 1) | – | – | – | apparent KD of MS2 coat protein [4]: 15.4 nM |
| GUACAACAUGAGGAUCACCCAUGUGAGGAUAUGCGAAUUUCAUCAAAAGAUGAAAUUUGCAGAAGGCACAGUAC [Omei Ex1 A8] (Eterna round: R97, puzzle: Exclusion 1) | – | 26.6 | 32.8 | – |
| GUACCAAUUGUAGGAUAUGGAUCCGAUUAGGAUCCAGAAGGACAUGAGGAUCACCCAUGUACAUGAGGAUCACCCAUUAGGUAC [Fiskers ExNg1 - 12] (Eterna round: R96, puzzle: Exclusion NG 1) | – | 53.2 | 46.1 | apparent KD of MS2 coat protein [4]: 30.9 nM |
| GUACUAGAAUAUCAGUCGCACAUGAGGAUCACCCAUGUCAUGGGUAGAUAAAUAAAUAAAGAUACUGCUCGUCUUAU [Cac sensor turnoff var1 sub1] (Eterna round: R97, puzzle: Sensor, turn-off variant 1) | – | 277 | 399 | – |
| GUACUGACAGGAUAUACAUGAGGAUCACCCAUGUCCUUAUGCUGACAAAAGUCAGCAAGUAGAAGGGUCUGUAC [Omei Ex3 Model Bachelor's Dilema v2] (Eterna round: R97, puzzle: Exclusion 3) | – | 1270 | 88.4 | – |
| GUACUGACAGGAUAUACAUGAGGAUCACCCAUGUGCCUUAUCGCUACAAAAGUAGCGGGUAGAAGGGUCUGUAC [Omei Ex3 Model Bachelor's Dilema v19] (Eterna round: R97, puzzle: Exclusion 3) | – | 41.8 | 16.4 | – |

| Sequence | apparent KD of MS2 coat protein [1] [nM] | apparent KD of MS2 coat protein (input ligand: FMN 200 uM) [nM] | apparent KD of MS2 coat protein (input ligand: none) [nM] | also measured |
| --- | --- | --- | --- | --- |
| GUAGAGUAAGGAUAUACAGAAUAGGAUAGAAUGGUUAGAAUGUAGAAGGUACAUGAGGAUCACCCAUGUAAUGU [Excluse me!!!! 8 - Jieux - Exclusion 4] (puzzle: Exclusion 4) | 19.7 | – | – | – |
| GUAGAGUAAGGAUAUCAAGAAUAGGAUAGAAUGGUUAGAAUUGAGAAGGUACAUGAGGAUCACCCAUGUAAUGU [Excluse me!!!! 4 - Jieux - Exclusion 4] (puzzle: Exclusion 4) | 24.1 | – | – | – |
| GUAGAGUAAGGAUAUGGUGAAUAGGAUAGAAUGGUUAGAAAUCAGAAGGUACAUGAGGAUCACCCAUGUAAUGU [Excluse me!!!! 15 - Jieux - Exclusion 4] (puzzle: Exclusion 4) | 21 | – | – | – |
| GUAGAGUCAGGAUAUACGAGAUCGAAAGAUCAGUGAUCCUUACAUGAGGAUCACCCAUGUAGAAGGGACUCUAC [Omei mod 8 to Eli's favorate candidate (ch.parushev)] (Eterna round: R97, puzzle: Exclusion 2) | – | 41.9 | 388 | – |
| GUAGAGUGAGGAUAUACGAGAUCGAUAGAUCAACGAUCCAAACAUGAGGAUCACCCAUGUAGAAGGCACUCUAC [Mat - Exclusion 2 - Eli Mod - D8] (Eterna round: R97, puzzle: Exclusion 2) | – | 224 | 23.1 | – |
| GUAGAGUGAGGAUAUACGAGAUCGAUAGAUCGGCGAUCCAUACAUGAGGAUCACCCAUGUAGAAGGCACUCUAC [Mat - Exclusion 2 - Eli Mod - D2] (Eterna round: R97, puzzle: Exclusion 2) | – | 625 | 29.3 | – |
| GUAUAACAUGUAGGAUAUGCGUGGCGAAGCUAUGCAGAAGGACAUGAGGAUCACCCAUGUUUUAGCGUCUGCGUACAGAUGCAA [JL ENG1 1.39] (Eterna round: R96, puzzle: Exclusion NG 1) | – | 143 | 26.3 | apparent KD of MS2 coat protein [4]: 20.1 nM |
| GUAUAACUACACGGGCUCAACAUGAGGAUCACCCAUGUCAUAUACGCAAGCUUUUUGCUUGUCUUACCUGUCCGUGA [Ariedbi] (puzzle: Sensor v3, turn-off variant 1) | 10.4 | – | – | apparent KD of MS2 coat protein [2]: 11.5 nM; apparent KD of MS2 coat protein [3]: 10.1 nM |
| GUCACAUGGACAUAGGAUCACAUGAGGAUCACCCAUGUGACUAACAAGCUUUUUGCUCGUCUUAUGUCCAUGUGAAU [Stov1/15-A3] (Eterna round: R97, puzzle: Sensor, turn-off variant 1) | – | 13 | 12.9 | – |
| GUCACAUGGACAUAGGAUCACAUGAGGAUCACCCAUGUGACUAACAAGCUUUUUGCUCGUCUUAUGUCUAUGUGAAG [Stov1/16-A3] (Eterna round: R97, puzzle: Sensor, turn-off variant 1) | – | 14.4 | 12.4 | – |
| GUCACAUGGGUGUAGAAUCACAUGAGGAUCACCCAUGUGACUAACAAGCUUUUUGCUCGUCUUAUGUCUAUGUGAAG [Stov1/17-A3] (Eterna round: R97, puzzle: Sensor, turn-off variant 1) | – | 58.7 | 32.1 | – |
| GUCACCUCGGUGACAAAGCACAUGAGGAUCACCCAUGUAUGUGCUUGGAAACAAGCAUUUUGUUCGUCUUAUAAGAA [same principle] (Eterna round: R96, puzzle: Sensor v2, turn-off variant) | – | 22.7 | 21.6 | apparent KD of MS2 coat protein [4]: 95.4 nM |
| GUCACGUAAGGAUAUCAUUAGUUGGACAUGAGGAUCACCCAUGUGAGACUAACUCCGGCGUGAGAAGGUGCGUUAA [Arorza] (puzzle: Exclusion 5) | 12 | – | – | – |
| GUCACUAGAGGAUAUACAAUGGUAUAUGAUCCUAGUGACAAACAUGAGGAUCACCCAUGUAGAAGGCUAGUAAA [Exclusion 2 - 2] (puzzle: Exclusion 2) | 28.3 | – | – | apparent KD of MS2 coat protein [2]: 24.5 nM; apparent KD of MS2 coat protein [3]: 28 nM |
| GUCAGCUCGUCAGGAUAUACAUGAGGAUCACCCAUGUGGUCAUUAGCAGCUUCGGCUGCAUUAAUGUAGAAGGGACGAGCUGAC [ENG2/8-B1] (Eterna round: R96, puzzle: Exclusion NG 2) | – | 1120 | 591 | apparent KD of MS2 coat protein [4]: 357 nM |
| GUCAGCUCGUCAGGAUAUACAUGAUAGAUCGAUUAAUUAAUUAAUUUAACAUGAGGAUCACCCAUGUAGAAGGGACGAGCUGAU [ENG2/1-B2] (Eterna round: R96, puzzle: Exclusion NG 2) | – | – | – | apparent KD of MS2 coat protein [4]: 59.2 nM |
| GUCAGCUCGUCAGGAUAUAUAUAUACAUGAGGAUCACCCAUGUUAGAUCAGCUUCGGCAGUAUAUAUAGAAGGGACGAGCUGAC [ENG2/15-B1] (Eterna round: R96, puzzle: Exclusion NG 2) | – | 153 | 72.5 | apparent KD of MS2 coat protein [4]: 59 nM |
